Assays:
sGP = sGP (Ebola virus (EBOV), UniProt Q05320 33-295); assay: ELISA on coated truncated GP
GP1 = GP1 (Ebola virus (EBOV), UniProt Q05320 33-501); assay: ELISA on coated truncated GP
GP 95-295 = GP 95-295 (Ebola virus (EBOV), UniProt Q05320 95-295); assay: ELISA on coated truncated GP
RESTV GP = molecular target: T1, RESTV GP (RESTV, UniProt Q66799 34-651); assay: ELISA, coated GP 1 μg/mL, antibody titrated from 10 μg/mL
T1 sequence: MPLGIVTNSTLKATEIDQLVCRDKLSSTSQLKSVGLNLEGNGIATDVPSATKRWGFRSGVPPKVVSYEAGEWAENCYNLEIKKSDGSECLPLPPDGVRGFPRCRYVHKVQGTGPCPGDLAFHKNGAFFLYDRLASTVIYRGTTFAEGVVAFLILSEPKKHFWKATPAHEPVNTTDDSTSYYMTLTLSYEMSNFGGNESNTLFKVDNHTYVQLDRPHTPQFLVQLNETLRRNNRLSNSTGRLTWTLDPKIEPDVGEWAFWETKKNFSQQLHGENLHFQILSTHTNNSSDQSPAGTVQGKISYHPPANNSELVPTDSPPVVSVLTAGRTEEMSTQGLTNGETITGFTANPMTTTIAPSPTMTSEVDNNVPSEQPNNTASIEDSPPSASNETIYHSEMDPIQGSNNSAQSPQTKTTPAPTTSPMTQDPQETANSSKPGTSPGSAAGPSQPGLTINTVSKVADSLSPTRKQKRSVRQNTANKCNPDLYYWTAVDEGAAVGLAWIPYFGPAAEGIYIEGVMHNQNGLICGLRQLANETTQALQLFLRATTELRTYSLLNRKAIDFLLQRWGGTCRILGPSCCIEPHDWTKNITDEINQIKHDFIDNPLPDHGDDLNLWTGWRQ

SUDV GP = molecular target: T2, SUDV GP (SUDV, UniProt Q7T9D9 33-650); assay: as above
T2 sequence: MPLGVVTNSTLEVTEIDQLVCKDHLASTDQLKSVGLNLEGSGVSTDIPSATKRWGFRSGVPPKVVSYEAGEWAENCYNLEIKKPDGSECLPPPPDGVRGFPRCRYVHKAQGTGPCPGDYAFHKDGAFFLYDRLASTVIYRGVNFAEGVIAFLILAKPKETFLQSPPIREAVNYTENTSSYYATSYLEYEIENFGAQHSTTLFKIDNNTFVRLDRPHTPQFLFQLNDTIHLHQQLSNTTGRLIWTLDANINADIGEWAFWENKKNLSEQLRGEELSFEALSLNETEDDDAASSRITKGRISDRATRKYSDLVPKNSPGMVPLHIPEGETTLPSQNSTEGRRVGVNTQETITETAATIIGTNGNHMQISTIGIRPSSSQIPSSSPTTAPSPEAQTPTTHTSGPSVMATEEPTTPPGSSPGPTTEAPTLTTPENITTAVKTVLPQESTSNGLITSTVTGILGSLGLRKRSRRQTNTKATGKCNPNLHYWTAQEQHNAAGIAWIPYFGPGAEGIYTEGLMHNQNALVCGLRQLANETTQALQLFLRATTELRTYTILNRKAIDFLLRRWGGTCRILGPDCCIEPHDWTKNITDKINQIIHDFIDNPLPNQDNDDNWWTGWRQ

EBOV GP = molecular target: T3, EBOV GP (Ebola virus (EBOV), UniProt Q05320 33-650); assay: as above
T3 sequence: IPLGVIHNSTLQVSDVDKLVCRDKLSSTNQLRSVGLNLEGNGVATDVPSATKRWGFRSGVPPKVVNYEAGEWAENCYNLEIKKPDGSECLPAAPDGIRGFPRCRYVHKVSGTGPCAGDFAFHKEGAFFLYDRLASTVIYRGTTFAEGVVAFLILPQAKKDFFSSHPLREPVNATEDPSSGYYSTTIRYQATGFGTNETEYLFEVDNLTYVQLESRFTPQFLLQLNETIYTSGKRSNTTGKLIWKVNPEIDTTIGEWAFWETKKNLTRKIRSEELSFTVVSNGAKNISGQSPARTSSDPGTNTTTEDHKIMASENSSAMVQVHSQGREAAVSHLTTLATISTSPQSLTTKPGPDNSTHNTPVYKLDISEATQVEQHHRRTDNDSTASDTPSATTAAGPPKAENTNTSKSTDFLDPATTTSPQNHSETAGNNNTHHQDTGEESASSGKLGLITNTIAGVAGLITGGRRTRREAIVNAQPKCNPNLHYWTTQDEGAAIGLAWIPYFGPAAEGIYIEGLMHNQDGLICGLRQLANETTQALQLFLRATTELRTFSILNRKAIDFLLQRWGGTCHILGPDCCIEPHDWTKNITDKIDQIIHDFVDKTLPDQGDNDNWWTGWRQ

B1: 抗埃博拉病毒糖蛋白GP1亚基的单克隆抗体5E9 (antibody, V domains shown)
VH: EVQLLESGGGLVKPGGSLRLSCVASGFTFTNAWMNWVRQAPGKGLEWVGRIKSKTDSGTTDYAAPVNGRFTISRDDSKNTLYLQMNSLKTEDTAVYYCTTRYQYNGMDVWGQGTTVTVSS
VL: QPVLTQPPSVSGAPGQRVTISCTGRSSNIGAGYDVHWYQHLPGTAPKLLIYANTNRPSGVPDRFSGSKSGTSASLAITGLQPGDEADYYCQSYDSRLSDHVVFGGGTKLTVLG
For B1, which EC50 (sGP) is on record?
Its EC50 is 5 ng/mL.

What about the EC50 (GP1) of the same binder?
Its EC50 is 4.1 ng/mL.

What about the EC50 (GP 95-295) of the same binder?
Its EC50 is 11.8 ng/mL.

What about the EC50 (RESTV GP) of the same binder?
Its EC50 is 149 ng/mL.

What about the EC50 (SUDV GP) of the same binder?
Its EC50 is over 1000 ng/mL.

What about the EC50 (EBOV GP) of the same binder?
The EC50 was 6 ng/mL.

From patent CN111138530A (INST MILITARY MEDICINE ACADEMY MILITARY SCIENCES PLA, dated 2020)
